This passage reports neutralizing activity (EC50 value), rounding of toxin B-exposed IMR-90 cells results from patent US20150259402A1.

For this assay, the target named is Clostridium difficile toxin B (Clostridium difficile) (UniProt P18177). The assay can be described thus: cell-based or functional assay.
Clostridium difficile toxin B (Clostridium difficile), sequence (P18177 2-2366 limits assumed): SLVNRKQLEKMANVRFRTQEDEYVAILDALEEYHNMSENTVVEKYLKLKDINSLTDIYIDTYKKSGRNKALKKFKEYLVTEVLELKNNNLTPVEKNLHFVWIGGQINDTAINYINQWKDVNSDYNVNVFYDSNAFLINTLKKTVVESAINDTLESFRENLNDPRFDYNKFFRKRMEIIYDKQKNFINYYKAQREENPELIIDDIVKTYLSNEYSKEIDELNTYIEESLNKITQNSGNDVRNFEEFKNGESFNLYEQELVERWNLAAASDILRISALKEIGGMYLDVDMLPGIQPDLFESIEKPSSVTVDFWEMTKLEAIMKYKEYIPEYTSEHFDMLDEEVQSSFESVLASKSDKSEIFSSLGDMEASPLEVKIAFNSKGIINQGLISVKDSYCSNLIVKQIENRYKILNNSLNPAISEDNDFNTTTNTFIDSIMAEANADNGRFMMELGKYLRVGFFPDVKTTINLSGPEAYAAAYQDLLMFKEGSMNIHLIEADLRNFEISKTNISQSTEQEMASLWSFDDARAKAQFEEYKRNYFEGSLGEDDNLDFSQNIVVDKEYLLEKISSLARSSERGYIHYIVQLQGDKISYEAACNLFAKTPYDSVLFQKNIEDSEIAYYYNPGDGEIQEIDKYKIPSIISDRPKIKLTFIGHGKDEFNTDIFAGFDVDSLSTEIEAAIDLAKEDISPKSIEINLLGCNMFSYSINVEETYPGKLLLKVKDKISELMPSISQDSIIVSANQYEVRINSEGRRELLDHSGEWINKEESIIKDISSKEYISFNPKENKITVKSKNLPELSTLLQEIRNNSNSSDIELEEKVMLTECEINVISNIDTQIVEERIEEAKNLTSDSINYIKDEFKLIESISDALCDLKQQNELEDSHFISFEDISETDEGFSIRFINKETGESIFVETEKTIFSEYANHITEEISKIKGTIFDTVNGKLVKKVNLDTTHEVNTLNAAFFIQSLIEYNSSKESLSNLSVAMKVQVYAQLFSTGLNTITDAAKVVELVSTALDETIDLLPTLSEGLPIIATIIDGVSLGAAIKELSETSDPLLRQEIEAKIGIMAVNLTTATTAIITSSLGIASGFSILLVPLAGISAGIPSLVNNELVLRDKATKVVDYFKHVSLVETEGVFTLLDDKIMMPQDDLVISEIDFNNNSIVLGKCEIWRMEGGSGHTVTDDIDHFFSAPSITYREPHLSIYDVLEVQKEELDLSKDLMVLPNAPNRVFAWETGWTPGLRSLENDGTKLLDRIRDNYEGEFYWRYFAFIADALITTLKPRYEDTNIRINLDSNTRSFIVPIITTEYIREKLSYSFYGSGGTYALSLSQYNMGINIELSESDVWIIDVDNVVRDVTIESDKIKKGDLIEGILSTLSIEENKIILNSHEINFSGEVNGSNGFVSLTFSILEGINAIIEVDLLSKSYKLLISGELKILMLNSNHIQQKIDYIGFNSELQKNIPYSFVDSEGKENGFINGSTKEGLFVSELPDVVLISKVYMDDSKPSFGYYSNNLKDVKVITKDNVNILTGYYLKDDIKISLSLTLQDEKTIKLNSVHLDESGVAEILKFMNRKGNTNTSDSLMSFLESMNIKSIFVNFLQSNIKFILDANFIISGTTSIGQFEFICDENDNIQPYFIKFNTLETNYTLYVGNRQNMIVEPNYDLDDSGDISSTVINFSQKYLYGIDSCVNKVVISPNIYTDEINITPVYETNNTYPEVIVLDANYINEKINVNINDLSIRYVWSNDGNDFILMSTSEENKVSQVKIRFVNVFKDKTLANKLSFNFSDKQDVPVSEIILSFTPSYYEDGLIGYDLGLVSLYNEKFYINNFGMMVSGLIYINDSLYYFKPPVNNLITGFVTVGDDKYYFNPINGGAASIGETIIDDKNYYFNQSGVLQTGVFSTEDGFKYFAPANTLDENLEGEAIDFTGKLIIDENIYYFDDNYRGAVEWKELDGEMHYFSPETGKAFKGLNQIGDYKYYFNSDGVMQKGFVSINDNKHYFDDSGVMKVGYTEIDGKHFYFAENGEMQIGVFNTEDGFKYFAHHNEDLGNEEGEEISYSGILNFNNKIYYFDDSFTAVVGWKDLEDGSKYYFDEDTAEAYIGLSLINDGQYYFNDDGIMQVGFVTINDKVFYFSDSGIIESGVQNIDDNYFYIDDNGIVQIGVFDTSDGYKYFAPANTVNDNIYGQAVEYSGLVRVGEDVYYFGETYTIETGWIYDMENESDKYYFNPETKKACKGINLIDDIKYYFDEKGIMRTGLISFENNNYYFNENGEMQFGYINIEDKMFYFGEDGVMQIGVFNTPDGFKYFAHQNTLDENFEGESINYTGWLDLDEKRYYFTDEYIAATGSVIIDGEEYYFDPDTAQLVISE

MDX1388 (antibody) registered a neutralizing activity (EC50 value), rounding of toxin B-exposed IMR-90 cells of under 0.1 µg/mL.
